Source: patent publication CN110760483A (UNIV YANGZHOU, dated 2020)

Legend:
[1] = molecular target: T1, rHis-BoTNF-α (pET-30a(+)-BoTNF-α, E. coli BL21(DE3)) (牛 (bovine), UniProt Q06599 78-234); assay: Western blot with HRP-3C1 1:1000
T1 construct: Own construct; also called rHis-BoTNF-α纯化蛋白; not shown: N-terminal His tag and vector residues of pET-30a(+) up to the BamHI site
T1 sequence (looked up): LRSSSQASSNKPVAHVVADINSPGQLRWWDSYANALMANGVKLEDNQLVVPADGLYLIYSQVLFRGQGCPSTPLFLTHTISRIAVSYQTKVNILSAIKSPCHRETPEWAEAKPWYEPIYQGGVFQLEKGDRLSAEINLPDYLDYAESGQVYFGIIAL

[2] = molecular target: T2, rBoIL-2 (Kingfisher-Biotech公司, rp0026B-005) (UniProt P05016 21-155); assay: indirect ELISA, coated protein, 3C1 hybridoma supernatant
T2 construct: Commercial protein
T2 sequence (looked up): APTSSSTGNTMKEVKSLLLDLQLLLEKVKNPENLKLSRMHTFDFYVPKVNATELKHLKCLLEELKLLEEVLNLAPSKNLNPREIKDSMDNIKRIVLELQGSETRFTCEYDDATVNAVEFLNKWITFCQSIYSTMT

[3] = molecular target: T3, rBoIFN-γ (美国R&D公司, 2300-BG-02) (UniProt P07353 24-166); assay: as above
T3 construct: Commercial protein; species read from the label Bo
T3 sequence (looked up): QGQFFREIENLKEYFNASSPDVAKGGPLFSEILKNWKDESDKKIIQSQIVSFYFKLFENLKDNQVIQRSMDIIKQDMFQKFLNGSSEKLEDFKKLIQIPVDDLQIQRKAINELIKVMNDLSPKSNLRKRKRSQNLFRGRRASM

[4] = molecular target: T4, rPoTNF-α (美国R&D公司, 690-PT-025) (UniProt P23563 77-232); assay: as above
T4 construct: Commercial protein

[5] = molecular target: T5, rhuTNF-α (PeproTech, 300-01A-50) (UniProt P01375 77-233); assay: as above
T5 construct: Commercial protein

[6] = molecular target: T6, 商品化rBoTNF-α (美国R&D公司, 2279-BT-025) (牛 (bovine), UniProt Q06599 78-234); assay: indirect ELISA, protein coated at 0.5μg/mL, 3C1 hybridoma supernatant
T6 construct: Commercial protein
T6 sequence (looked up): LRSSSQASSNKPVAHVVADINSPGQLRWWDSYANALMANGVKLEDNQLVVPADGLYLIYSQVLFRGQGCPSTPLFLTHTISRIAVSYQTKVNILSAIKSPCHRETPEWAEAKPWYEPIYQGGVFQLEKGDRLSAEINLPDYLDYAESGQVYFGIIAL

[7] = molecular target: T7, 天然羊TNF-α (羊外周血单核细胞) (羊 (sheep)) (UniProt P23383); assay: intracellular flow cytometry, PMA/ionomycin-stimulated sheep PBMC, FITC-3C1 0.5μg/mL
T7 sequence (looked up): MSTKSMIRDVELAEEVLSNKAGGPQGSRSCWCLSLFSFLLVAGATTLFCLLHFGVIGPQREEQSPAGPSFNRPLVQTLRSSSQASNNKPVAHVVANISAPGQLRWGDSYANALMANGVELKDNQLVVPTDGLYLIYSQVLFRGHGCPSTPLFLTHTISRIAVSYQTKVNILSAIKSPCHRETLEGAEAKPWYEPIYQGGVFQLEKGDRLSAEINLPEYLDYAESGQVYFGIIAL

[8] = molecular target: T8, 天然牛TNF-α (牛外周血单核细胞) (牛 (bovine)) (UniProt Q06599); assay: intracellular flow cytometry, PMA/ionomycin-stimulated bovine PBMC, FITC-3C1 0.5μg/mL
T8 sequence (looked up): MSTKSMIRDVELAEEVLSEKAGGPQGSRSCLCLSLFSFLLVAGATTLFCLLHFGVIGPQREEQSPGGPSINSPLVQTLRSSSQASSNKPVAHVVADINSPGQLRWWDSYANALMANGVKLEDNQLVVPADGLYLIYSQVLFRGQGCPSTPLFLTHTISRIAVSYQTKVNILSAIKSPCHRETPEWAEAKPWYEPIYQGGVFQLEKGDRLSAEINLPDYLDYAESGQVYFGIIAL

[9] = molecular target: T7, 天然羊TNF-α (羊外周血单核细胞) (羊 (sheep)); assay: intracellular flow cytometry, unstimulated sheep PBMC (control well), FITC-3C1 0.5μg/mL
[10] = molecular target: T8, 天然牛TNF-α (牛外周血单核细胞) (牛 (bovine)); assay: intracellular flow cytometry, unstimulated bovine PBMC (control well), FITC-3C1 0.5μg/mL
[11] = molecular target: T9, rGST-BoTNF-α (pGEX-6p-1-BoTNF-α, E. coli BL21) (牛 (bovine)) (UniProt Q06599); assay: indirect ELISA, rGST-BoTNF-α coated at 0.5μg/mL, serially diluted 3C1 ascites, cut-off P/N≥2.1
T9 sequence (looked up): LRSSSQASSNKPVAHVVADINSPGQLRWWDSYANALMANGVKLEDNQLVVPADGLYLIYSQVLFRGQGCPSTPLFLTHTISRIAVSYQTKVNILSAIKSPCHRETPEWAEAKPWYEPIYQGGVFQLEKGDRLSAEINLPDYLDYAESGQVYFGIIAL

T4 sequence (P23563 77-232 limits assumed): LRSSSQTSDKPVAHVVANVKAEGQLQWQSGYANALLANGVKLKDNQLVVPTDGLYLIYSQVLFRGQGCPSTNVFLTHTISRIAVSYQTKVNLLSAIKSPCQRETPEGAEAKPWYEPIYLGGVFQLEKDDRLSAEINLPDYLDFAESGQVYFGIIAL
T5 sequence (P01375 77-233 limits assumed): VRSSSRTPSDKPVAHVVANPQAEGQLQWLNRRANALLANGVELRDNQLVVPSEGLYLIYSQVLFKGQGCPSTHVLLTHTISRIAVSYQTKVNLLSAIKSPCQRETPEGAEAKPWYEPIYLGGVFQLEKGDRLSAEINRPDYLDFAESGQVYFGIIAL

B1: 单克隆抗体3C1 (具牛、羊交叉反应的抗TNF-α单克隆抗体, 杂交瘤 CCTCC NO:C2019129) (antibody, V domains shown)
VH: QVQLKQSGPGLVQPSQSLSITCTVSGFSLTNFSVHWVRQPPGKGLEWLGVMWSGGSTDYNAAFISRLSIIKDNSKSQVFFKMNGLQADDTAIYYCARSGPYYYSLDYWGQGTSVTVSS
VL: DIQMTQSPASLSASVGETVTITCRASENIYIYLAWYQQKQGKSPQLLVYNAKTLAEGVPSRFSGSGSGTQFSLNINSLQPEDFGSYYCQHHYGTPWTFGGGTKLEIK
notes: Used as ascites, hybridoma supernatant, HRP-labelled (HRP-3C1) or FITC-labelled (FITC-3C1) antibody, depending on the assay; also called mAb 3C1; MAb 3C1
[1]
  binding result: binds
[2]
  binding result: no binding (tested: 0.5μg/mL (coating))
[3]
  binding result: no binding (tested: 0.5μg/mL (coating))
[4]
  binding result: no binding (tested: 0.5μg/mL (coating))
[5]
  binding result: no binding (tested: 0.5μg/mL (coating))
[6]
  binding result: binds
[7]
  分泌羊TNF-α细胞比例 (percent stained cells): 13.4%
[8]
  分泌牛TNF-α细胞比例 (percent stained cells): 18.4%
[9]
  分泌羊TNF-α细胞比例 (percent stained cells): 0.027%
[10]
  分泌牛TNF-α细胞比例 (percent stained cells): 0.051%
[11]
  效价 (ascites titre) (dilution (1:x)): 1.31e+07
